Here are results for 14 substances from patent publication US20230038638A1, “COMPLEMENT FACTOR I-RELATED COMPOSITIONS AND METHODS” (published 2023).

The target of experiment [1] is T1, human C4b (human) (UniProt P0C0L4).
T1 sequence: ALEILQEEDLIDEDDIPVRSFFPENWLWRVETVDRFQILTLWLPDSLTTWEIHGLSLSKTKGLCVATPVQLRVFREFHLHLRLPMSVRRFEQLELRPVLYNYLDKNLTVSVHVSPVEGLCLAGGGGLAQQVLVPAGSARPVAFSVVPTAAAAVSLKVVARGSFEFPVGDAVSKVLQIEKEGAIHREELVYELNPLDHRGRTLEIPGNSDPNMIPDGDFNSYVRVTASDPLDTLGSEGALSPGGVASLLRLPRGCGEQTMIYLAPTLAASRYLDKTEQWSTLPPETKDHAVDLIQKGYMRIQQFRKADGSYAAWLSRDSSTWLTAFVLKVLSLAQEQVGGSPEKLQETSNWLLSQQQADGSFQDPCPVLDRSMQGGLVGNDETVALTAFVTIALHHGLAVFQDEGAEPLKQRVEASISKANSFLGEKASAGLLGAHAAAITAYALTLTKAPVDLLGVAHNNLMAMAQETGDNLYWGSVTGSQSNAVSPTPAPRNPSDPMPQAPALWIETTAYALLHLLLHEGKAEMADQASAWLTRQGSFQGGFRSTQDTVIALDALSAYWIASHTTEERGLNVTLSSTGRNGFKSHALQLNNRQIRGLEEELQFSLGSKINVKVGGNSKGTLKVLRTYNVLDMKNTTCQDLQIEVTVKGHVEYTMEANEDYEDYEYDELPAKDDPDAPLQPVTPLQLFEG

The target in experiment [2] is soluble human C3b (human) (UniProt P01024).
Experiment [3] has as its target T1, human C4b (human). This is another data set of the same source.
Experiment [4] addresses soluble human C3b (human) (UniProt P01024). This is another data set of the same source.

Take CFI-HSA variant A405S (enzyme): the C4c EC50 (nM) in experiment [1] was 353 nM. The same substance displayed an iC3b EC50 in experiment [2] of 23.9 nM. The C4b Screen Ref Fold (fold of reference) in experiment [3] worked out at 2.12. The iC3b Screen Ref Fold (fold of reference) in experiment [4] worked out at 0.94.

Consider CFI-HSA variant D341A (enzyme), for which the C4c EC50 (nM) in experiment [1] was > 1000 nM. The substance further gave an iC3b EC50 in experiment [2] of 57.2 nM. Besides, in experiment [3], the C4b Screen Ref Fold (fold of reference) was 0.19. Also, the iC3b Screen Ref Fold (fold of reference) in experiment [4] stood at 0.26.

In experiment [1], CFI-HSA variant D420G (enzyme) gave a C4c EC50 (nM) of 63.6 nM. In experiment [2], this substance had an iC3b EC50 of 7 nM. The C4b Screen Ref Fold (fold of CFI-HSA wild type) in experiment [3] is 2.71. The iC3b Screen Ref Fold (fold of CFI-HSA wild type) in experiment [4] came out at 2.53.

Turning to CFI-HSA variant D425G (enzyme), the C4c EC50 in experiment [1] was > 1000 nM. The substance further registered an iC3b EC50 in experiment [2] of 13.5 nM. Further, the C4b Screen Ref Fold (fold of reference) in experiment [3] is 2.18. Also, the iC3b Screen Ref Fold (fold of reference) in experiment [4] worked out at 0.7.

Take “CFI-HSA variant D425R; E457G; E461Q; N531G (enzyme)”: the C4c EC50 (nM) in experiment [1] stood at 4 nM. Also, in experiment [2], the iC3b EC50 was 2.2 nM. Besides, the C4b Screen Ref Fold (fold of CFI-HSA wild type) in experiment [3] was found to be 4.25. In addition, in experiment [4], the iC3b Screen Ref Fold (fold of CFI-HSA wild type) amounted to 1.9.

Substance CFI-HSA variant E392G (enzyme) gave a C4c EC50 (nM) in experiment [1] of 143 nM. For the same substance, in experiment [2], the iC3b EC50 amounted to 9.6 nM. Further, in experiment [3], the C4b Screen Ref Fold (fold of CFI-HSA wild type) amounted to 1.3. Besides, the iC3b Screen Ref Fold (fold of CFI-HSA wild type) in experiment [4] came to 1.66.

For the substance “CFI-HSA variant E416A; E457G; E461Q; N531G (enzyme)”, in experiment [1], the C4c EC50 (nM) was 26.1 nM. The substance also yielded an iC3b EC50 in experiment [2] of 4.2 nM. The C4b Screen Ref Fold (fold of CFI-HSA wild type) in experiment [3] came to 4.01. Also, the iC3b Screen Ref Fold (fold of CFI-HSA wild type) in experiment [4] turned out to be 1.69.

In experiment [1], CFI-HSA variant E416A; K504H (enzyme) showed a C4c EC50 (nM) of 168 nM. Moreover, the iC3b EC50 in experiment [2] was 20.8 nM. Further, the C4b Screen Ref Fold (fold of CFI-HSA wild type) in experiment [3] was determined as 0.63. The iC3b Screen Ref Fold (fold of CFI-HSA wild type) in experiment [4] was 0.59.

In experiment [1], “CFI-HSA variant E416A; N422K; E457G; E461Q; Q467K; N531G (enzyme)” showed a C4c EC50 (nM) of 4.4 nM. Also, the iC3b EC50 in experiment [2] was determined as 1.7 nM. For the same substance, the C4b Screen Ref Fold (fold of CFI-HSA wild type) in experiment [3] amounted to 3.84. Besides, in experiment [4], the iC3b Screen Ref Fold (fold of CFI-HSA wild type) worked out at 3.05.

In the case of “CFI-HSA variant E457G; E461Q; E530Y; N531G; P558S (enzyme)”, the C4c EC50 (nM) in experiment [1] was determined as 21 nM. The iC3b EC50 in experiment [2] was determined as 5.2 nM. Further, in experiment [3], the C4b Screen Ref Fold (fold of CFI-HSA wild type) is 4.04. Further, the iC3b Screen Ref Fold (fold of CFI-HSA wild type) in experiment [4] turned out to be 1.25.

“CFI-HSA variant E457G; E461Q; F464Y; E530F; N531G; P558S (enzyme)” had a C4c EC50 (nM) in experiment [1] of 18.1 nM. The same substance had an iC3b EC50 in experiment [2] of 4.2 nM. In experiment [3], the C4b Screen Ref Fold (fold of CFI-HSA wild type) is 4.21. The iC3b Screen Ref Fold (fold of CFI-HSA wild type) in experiment [4] came out at 2.01.

Regarding “CFI-HSA variant E457G; E461Q; F464Y; K504H; N531G (enzyme)”, the C4c EC50 (nM) in experiment [1] is > 1000 nM. Also, in experiment [2], the iC3b EC50 came to 22.7 nM. The C4b Screen Ref Fold (fold of CFI-HSA wild type) in experiment [3] was determined as 1.78. The iC3b Screen Ref Fold (fold of CFI-HSA wild type) in experiment [4] is 0.49.

As for “CFI-HSA variant E457G; E461Q; R462K; F464Y; E530F; N531G; P558S (enzyme)”, the C4c EC50 (nM) in experiment [1] amounted to 21.4 nM. Moreover, in experiment [2], the iC3b EC50 was determined as 5.5 nM. Moreover, in experiment [3], the C4b Screen Ref Fold (fold of CFI-HSA wild type) was 4.65. The iC3b Screen Ref Fold (fold of CFI-HSA wild type) in experiment [4] came out at 2.22.

In experiment [1], CFI-HSA variant E457K (enzyme) registered a C4c EC50 (nM) of 135 nM. In experiment [2], the iC3b EC50 was 9.5 nM. For the same substance, in experiment [3], the C4b Screen Ref Fold (fold of reference) was determined as 4.58. The iC3b Screen Ref Fold (fold of reference) in experiment [4] worked out at 1.37.
